The text below walks through data of article PMC6602975.

Test [1] has as its target Unmodified nucleosome core particle (X. laevis histone octamer on 147 bp Widom-601 DNA) (X. laevis). The test can be described thus: native gel or EMSA; increasing amounts of Orc1 or Sir3 proteins with 50 or 25 nM nucleosomes; 10 mM Tris pH 7.5, 50 mM NaCl, 2.5% glycerol, 1 mM DTT; room temperature, 30 min; native PAGE 6% (Sir3) or 8% (Orc1), 0.2X TBE; decrease of free nucleosome; apparent KD from a Hill fit. On the technique in general: A gel shift assay detects complexes by their altered migration in electrophoresis.

For test [2], the target named is H4K16ac nucleosome (X. laevis | not stated). Described as above.

Turning to “Orc1 BAH A2P (from UniProt P54784 1-214) (domain or fragment)”, the fold loss of affinity compared with the WT domain in test [1] stood at 2 fold.

For “Orc1 BAH E95K (from UniProt P54784 1-214) (domain or fragment)”, the fold loss of affinity in test [1] worked out at 4 fold. With “Orc1 BAH R202E (from UniProt P54784 1-214) (domain or fragment)”, the fold decrease in affinity compared with the WT domain in test [1] turned out to be 4.9 fold. As for “Sir3 BAH D205Q (from UniProt P06701 1-214) (domain or fragment)”, the fold difference in affinity compared with unmodified nucleosome in test [2] was 4 fold.
